From PMC4270772 (PLoS Pathogens, 2014)

Target: T1, recombinant trimeric gp140 from HIV-1 92UG037 (clade A) (HIV-1 92UG037 (clade A), UniProt Q5VFI3, strain)
T1 construct: source: provided by S. Jeffs (Imperial College London)
Test: ELISA
Details: both partners purified

B1: 3E3 with the three germ line CDR2 residues re-inserted (VHH)
VHH: EVQLVESGGGLVQPGGSLRLSCAASQFTLESYAIGWFRQAPGKDSEGVACISSSDGSTYYADSVKGRFTISRDNAKNTVYLQMESLKPEDTAVYHCATSGAGSYCTLRAFGSWGQGTQVTVSS
  binding result: no binding
